Co-precipitation efficiency relative to that of Vps41-HA data for one molecule are collected here from article PMC3383723.

The test addresses T1, Vps41-TAP (yeast), P38959.
T1 chain: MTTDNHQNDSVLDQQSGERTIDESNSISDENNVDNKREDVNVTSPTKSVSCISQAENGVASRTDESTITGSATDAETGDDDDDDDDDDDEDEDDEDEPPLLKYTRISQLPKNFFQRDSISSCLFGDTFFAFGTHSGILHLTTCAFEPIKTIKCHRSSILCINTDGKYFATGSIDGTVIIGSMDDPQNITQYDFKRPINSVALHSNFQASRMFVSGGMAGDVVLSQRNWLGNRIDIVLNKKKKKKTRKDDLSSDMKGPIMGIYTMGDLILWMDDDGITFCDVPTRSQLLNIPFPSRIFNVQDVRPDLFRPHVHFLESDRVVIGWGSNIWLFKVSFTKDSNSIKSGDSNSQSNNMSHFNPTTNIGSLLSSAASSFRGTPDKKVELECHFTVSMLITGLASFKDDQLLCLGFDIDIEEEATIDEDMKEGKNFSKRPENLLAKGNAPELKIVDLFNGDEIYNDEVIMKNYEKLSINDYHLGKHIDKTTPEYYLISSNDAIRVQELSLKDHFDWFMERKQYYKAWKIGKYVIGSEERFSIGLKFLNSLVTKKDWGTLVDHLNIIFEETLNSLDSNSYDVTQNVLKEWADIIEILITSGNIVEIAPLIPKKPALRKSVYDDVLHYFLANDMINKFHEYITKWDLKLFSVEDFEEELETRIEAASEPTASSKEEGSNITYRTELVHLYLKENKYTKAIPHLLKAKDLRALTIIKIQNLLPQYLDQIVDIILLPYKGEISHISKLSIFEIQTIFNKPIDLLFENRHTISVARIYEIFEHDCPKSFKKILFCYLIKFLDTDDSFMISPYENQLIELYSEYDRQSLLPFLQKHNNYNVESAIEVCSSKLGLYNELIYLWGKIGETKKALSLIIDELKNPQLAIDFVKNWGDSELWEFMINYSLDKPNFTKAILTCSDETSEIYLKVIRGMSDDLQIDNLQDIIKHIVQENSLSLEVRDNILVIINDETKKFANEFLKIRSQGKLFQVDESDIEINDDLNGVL
In words: co-IP. Particulars: remark: other sources report otherwise.

B1: Vps39, Q07468 1-1049 (natural protein)
chain: MLRAQKLHSLKSSDITAILPTEQSQKLVLAKKNGDVEVYSRDGNTLKLFQVYPDLLQNAKNDPLPPVIENFYFANELSTIFAQCKETLILLSTTNLHEYDRIIDRRGINHCWLFERSHKNKEEKNTYLIYSTINTAKMRVLIWEGRTYKNMMEASLSYRKETIRSIYPGETGITLATDLGIYHWPYNKPSLIRIEKTVKNKFPKDMISALTELKEQAEKVIEKKPKKNSHFDAQSFSSMDRMSRKSSMSSLWYRTIRNERGNKIRYTFELDGNDATPMIIDGATKKIFKVELMHNNEEPFLIATDHATFSESNSEFDHMQYLSSNLLMLYNSSTIKFVDYENGFTFLQQKIPEGIKWVKNLSGTYFLVWTSNDEVQLFSYHVDDGSEDDDQESICGDINDPDFYQLWRKVLFYKFFIDSPHSKELCVSDNPEESLDICAMKLRDLTVMWCLRIFDKFQNYMVQLERSRNSRMIRSKCEEMIIKSIFDLFIKFWAPPQLVILKVFPSAISSLVLEITGQEHHCLLKEAEEVKETYDIPPHLLNRWCLPYLTDTRRHLQNLLSKENDDESRITWCYRDREIKQSFDFFLISNHDDVDLNTMLTLIDTVLFKCYLYYNPPMVGPFIRVENHCDSHVIVTELKIRHMFKDLIDFYYKRGNHEEALKFLTDLVDELENDNTDQKQRQKIDHGVKILVIYYLKKLSNPQLDVIFTYTDWLLNRHNDSIKEILSSIFFYDSQACSSRDHLKVYGYIKKFDKLLAIQYLEFAISTFRLEGNKLHTVLIKLYLENLDIPSTRIKLKSLLETTSVYEPRTILKLLNDAIESGSDQLPTNQLNFVKYLKIFPLSKLENHKEAVHILLDEIDDYKAATSYCNDVYQSDSTKGEELLLYLYSKLVSIYDSNRNSKLILNFLQDHGSKLNSAEIYKNLPQDISLYDIGRVVSQLLKKHTSKMDETRLEKALLQVELVATTYKLNERMSSYGVLSDSHKCPICKKVISNFGTDSISWFTREGRNIITHYNCGKVLQERFNAKNEKSSRIKQKTLGEVINELNNK
For B1, the co-precipitation efficiency relative to that of Vps41-HA amounted to 2 fold.
